From the nanobody polyreactivity screen of Harvey et al. (2022)

Test: yeast display, Sf9 membrane polyspecificity reagent, FACS + sequencing; frameworks hold sequencing errors
Procedure, shortened: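 Nanobodies came from a synthetic yeast display library in Saccharomyces cerevisiae BJ5465, induced with galactose for 36–48 hours and stained for 1 hour at 4 °C with 10% biotinylated, detergent-solubilized Sf9 membrane reagent. Cells were enriched on streptavidin microbeads and then FACS-sorted, with low and high (top ~1%) gates set on anti-HA fluorescence for expression and streptavidin fluorescence for reagent binding. Each polyreactivity label reflects the gate a clone came from. Genes were amplified by colony PCR, sequenced by MiSeq 2 × 250 and filtered by CDR length.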

QVQLVESGGGLVQAGGSLRLSCAASGIILYGYAMGWYRQAPGKARELVAALTWSGGSTYYADSVKGRFTISRDNAKNTVYLQMNSLKPEDTAVYYCAVDVHTSADASLPQEYDYWGQGTQVTVSS
polyreactivity (PSR sort gate): low polyreactivity

QVQLVESGGGLVQAGGSLRLSCAASGIILYPYAMGWYRQAPGKERELVAAISWSGGSTYYADSVKGRFTISRDKAKNTVYLQMNSLKPEDTAVYYCNARYYGPSWNSYDYWGQGTQVTVSS
polyreactivity (PSR sort gate): high polyreactivity

QVQLVESGGGLVQAGGSLRLSCAASGIILYPYFMGWYIQAPGKERELVAAISYSGGSTYYADSVKGRFTISGDNAKNTVYLQMNSLKPEDTAVYYCAAVPVTSQTKYGYWGQGTQVTVSS
polyreactivity (PSR sort gate): high polyreactivity

QVQLVESGGGLVQAGGSLRLSCAASGIISIFIVMGGYRQAPGKERELVASITGRGGSTFYADSVKGRFTISRDNAKNTVYLQMNSLKPEDTAVYYCATDTGYTYPVTGLYDYWGQGTQVTVSS
polyreactivity (PSR sort gate): low polyreactivity

QVQLVESGGGLVQAGGSLRLSCAASGIISRVYAMGWYRLAPGKERELVAAISGSGGTTYYADSVKGRFTISRDNAKNTVYLLMNSLKPEDTAVYYCAARYKALYDYWGQGSQVTVSS
polyreactivity (PSR sort gate): high polyreactivity

QVQLVESGGGLVQAGGSLRLSCAASGIISSVYAMGWYRQARGKERELVAAISGSGGSTYYADSVKGRFTISRDNAKNTVYLQMNSLKPEDTAVYYCAKGYQYQGNSYGYWGQGTQVTVSS
polyreactivity (PSR sort gate): low polyreactivity

QVQLVESGGGLVQAGGSLRLSCAASGIISSYYAMGWYRQAPGKERELVAAISKSGGSTDYADSVKGRFTISRDNAKNTVYLQMNSLKPEDTAVYYCAADAYWSYSTRYWFAYDYWGQGTQVTVSS
polyreactivity (PSR sort gate): low polyreactivity

QVQLVESGGGLVQAGGSLRLSCAASGIISYVYAMGWYRQAPGKERELVAAINWSGGNTYYADSVKGRFTISRDNAKNTVYLQMNSLKPEDTAVYYCAARAVLKSWAYYYWGQGTQVTVSS
polyreactivity (PSR sort gate): high polyreactivity

QVQLVESGGGLVQAGGSLRLSCAASGILLFNAMGWYRQAPGKERELVAPINSGGSTNYADSVKGRFTISRDNAKNTVYLQMKSLKPDDTAVYYCGKDTPFTLRVWAEGGMDYWGEGTQVTVSS
polyreactivity (PSR sort gate): low polyreactivity

QVQLVESGGGLVQAGGSLRLSCAASGILYYYAMGWYRQAPGKERELVAAITSGGSTNYADSVKGRFTISRDNAKNTVYLQMNSLKPEDTAVYYCNARRWWVIRDYWGQGTQVTVSS
polyreactivity (PSR sort gate): high polyreactivity

QVQLVESGGGLVQAGGSLRLSCAASGINFIVNPMGWYRQAPGKEREFVATISANSDGTYYADSVKGRFTISRDNAKNTVYLQMNSLKPEDTAVYYWGQGTQVTVSS
polyreactivity (PSR sort gate): low polyreactivity

QVQLVESGGGLVQAGGSLRLSCAASGINFQRNDMGWYRQAPGKERELVANIRDGGITYADSVKGRFTISRDNAKNTVYLQMNSLKPEDTAVYYCARDDTSPGYGDQSSNAAYYYWGQGTQVTVSS
polyreactivity (PSR sort gate): low polyreactivity

QVQLVESGGGLVQAGGSLRLSCAASGINFSYYAMGWYRQAPGKERELVAAIRENGGSTYYADSVKGRFTISRDNAKNTVYLQMNSLKPEDTAVYYCAVDTTYYAGYEYDYWGQGTQVTVSS
polyreactivity (PSR sort gate): low polyreactivity

QVQLVESGGGLVQAGGSLRLSCAASGINFWNYAMGWYRQAPGKERELVAAISSSSGRTYYADSVKGRFTISRDNAKNTVYLQMNSLKPEDTAVYYCAARRSFARRFKNSMEYWGQGTQVTVSS
polyreactivity (PSR sort gate): high polyreactivity

QVQLVESGGGLVQAGGSLRLSCAASGINYDYYTMGWYRQAPGKERELVASINFSGGSTYYADSVKGRFTISRDNAKNTVYLQMNSLKPEDTAVYYCAAVSVSFWGGGRYYYWGQGTQVTVSS
polyreactivity (PSR sort gate): high polyreactivity

QVQLVESGGGLVQAGGSLRLSCAASGISFITYVMGWYRQAPGKERELVAAISLRGGRTSYADSVKGRFTISRDNAKNTVYLQMNSLKPEDTAVYYCAARAYYTRYDYWGQGTQVTVSS
polyreactivity (PSR sort gate): high polyreactivity

QVQLVESGGGLVQAGGSLRLSCAASGISFLDNALGWYRQATGKERELVAAYADSVKGRFTISRDNAKNTVYLQMNSLKPEDTAVYYCNAGWIRNYGFSLVTYDYWGQGTQVTVSS
polyreactivity (PSR sort gate): low polyreactivity

QVQLVESGGGLVQAGGSLRLSCAASGISFSANAMGWYRQAPGKEREWVAAISASGGSTRYADSVKGRFTISRDNAKNTVYLQMNSLKPEDTAVYYCATRRTSRSKWRHYWGQGTQVTVSS
polyreactivity (PSR sort gate): high polyreactivity

QVQLVESGGGLVQAGGSLRLSCAASGISFVYYAMGWYRQAPGKERELVAAITSDGGSTYYADSVKGRFTISRDNAKNTVYLQMNSLKPEDTAVYYCAAEWTSWSWWYGWYEFDYWGQGTQVTVSS
polyreactivity (PSR sort gate): high polyreactivity

QVQLVESGGGLVQAGGSLRLSCAASGITFADNAMGWYRQAPGKERELVARISRGGRTNYADSVKGRFTISRDNAKNTVYLQMNSLKPEDTAVYYCAADKSSYEYYWGQGTQVTVSS
polyreactivity (PSR sort gate): high polyreactivity

QVQLVESGGGLVQAGGSLRLSCAASGITFAIYDMGWYRQAPGKERELVAVISGRGGSTYYADSVKGRFTISRDNAKNTVYLQMNSLKPEDTAVYYCAARGEASIFAGYDYWGQGTQVTVSS
polyreactivity (PSR sort gate): low polyreactivity

QVQLVESGGGLVQAGGSLRLSCAASGITFANYAMGWYRQAPGKERELVAAISWSDTSTYADSVKGRFTISRDNAKNTVYLQMNSLKPEDTAVYYCAADYHTPSSFAPIELYDYWGQGTQVTVSS
polyreactivity (PSR sort gate): low polyreactivity

QVQLVESGGGLVQAGGSLRLSCAASGITFAYYAMGWYRQAPGKERELVAAISRSGGGTYYADSVKGRFTISRDNAKNTVYLQMNSLKPEDTAVYYCNKDYPYYNSGPWAYKFDYWGQGTQVTVSS
polyreactivity (PSR sort gate): high polyreactivity

QVQLVESGGGLVQAGGSLRLSCAASGITFAYYVMGWYRQAPGKERELVATITGRGGSTSYADSVKGRFTISRDNEKNPVYLQMNSLKPEETAVYYCATGRYSVADNYWGQGTQVTVSS
polyreactivity (PSR sort gate): high polyreactivity

QVQLVESGGGLVQAGGSLRLSCAASGITFDDYVMGWYRQAPGKERELVAAITRSGGRTYYADSVKGRFTISRDNAKNTVYLQMNSLKPEDTAVYYCAARHRDNRFDYWGQGTQVTVSS
polyreactivity (PSR sort gate): high polyreactivity

QVQLVESGGGLVQAGGSLRLSCAASGITFDGYAMGWYRQAPGKERELVAAITYSGGRTYYADSVKGRFTISRDNAKNTVYLQMNCLKPDDTAVYYCAVVSRRLYEYDYWGQGTQVTVSS
polyreactivity (PSR sort gate): high polyreactivity

QVQLVESGGGLVQAGGSLRLSCAASGITFDHSAMGWYRQAPGKEREFVAAIDDIGGDTYYADSVKGRFTISRDNAKNTVYLQMNSLKPEDTAVDYCAADYGYYSRFYYWGQGTQVTVSS
polyreactivity (PSR sort gate): low polyreactivity

QVQLVESGGGLVQAGGSLRLSCAASGITFDKYAMGWYRQAPGKERELVAAISWGGGRTYYADSVKGRFTISRDNAKNTVYLQMNSLKPEDTAVYYCATSHGLYTRWYDYWGQGTQVTVSS
polyreactivity (PSR sort gate): high polyreactivity

QVQLVESGGGLVQAGGSLRLSCAASGITFDLYDMGWYRQAPGKERELVAAITDADSTYYADSVKGRFTISRDNAKNTVYLQMNSLKPEDTAVYYCAADFFYSVYSGHYDYWGQGTQVTVSS
polyreactivity (PSR sort gate): low polyreactivity

QVQLVESGGGLVQAGGSLRLSCAASGITFDRYVMGWYRQAPGKERELVAAISWTGDSTYYADSVKGRFTISRDNAKNTVYLQMNSQKPEDTAVYYCAAEDLWYGYNYWGQGTQVTVSS
polyreactivity (PSR sort gate): high polyreactivity

QVQLVESGGGLVQAGGSLRLSCAASGITFDYNAMGWYRQAPGKERELVADISASGDSTYYADSVKGRFTISRDNAKNTVYLQMNSLKPEDTAVYYCNTAYWYSWGYDYWGQGTQVTVSS
polyreactivity (PSR sort gate): low polyreactivity

QVQLVESGGGLVQAGGSLRLSCAASGITFDYYAMGWYRQAPRKERELVAAITGGGSTNYADSVKGRFTISRDNAKNTVYLQMNSLIPEDTAVYFCNALTRYRYQYGYLGGTGYNYWGHGTQVTVSS
polyreactivity (PSR sort gate): low polyreactivity

QVQLVESGGGLVQAGGSLRLSCAASGITFEDNAMGWYRQAPGKERELVATISDGGRTYYADSVKGRFTISRDNAKNTVYIQMNSLKPEDTAVYYCAAGYPYYHVYGYGYWGQGTQVTVSS
polyreactivity (PSR sort gate): low polyreactivity

QVQLVESGGGLVQAGGSLRLSCAASGITFEGYALGWYRQAPGKERELVAAIRSSGTSTYYADSVKGRFTISRDNAKNTVYLQMNSLKPEDTAVYYCNRARSSSRYDYWGQGTQVTVSS
polyreactivity (PSR sort gate): low polyreactivity

QVQLVESGGGLVQAGGSLRLSCAASGITFERNGMGWYRQAPGKERELVAAIRSGGSTYYADSVKGRFTISRDNAKNTVYLQMNSLKPEDTAVYYCNAPYGRQGYDYWGQGTQVTVSS
polyreactivity (PSR sort gate): low polyreactivity

QVQLVESGGGLVQAGGSLRLSCAASGITFEYYAMGWYRQAPGKERELVAAIDTGGSTNYADSVKGRFTISRDNAKNTVYLQMNSLKPEDTAVYYCAADWSWWDGEDYHFEVDYWGQGTQVTVSS
polyreactivity (PSR sort gate): low polyreactivity

QVQLVESGGGLVQAGGSLRLSCAASGITFEYYTMGWYRQAPGKERELVAAITSGGSTYYADSVKGRFTISRDNAKNTVYLQMNSLKPEDTAVYYCNADWSATSGEWTWFQYDYWGQGTQVTVSS
polyreactivity (PSR sort gate): high polyreactivity

QVQLVESGGGLVQAGGSLRLSCAASGITFFAYAMGWYRQAPGKERELVAAIWRGDNTYYADSVKGRFTISRDNAKNTVYLQMNSLKPEDTAVYYCAARYWSRRIFREGYWGQGTQVTVSS
polyreactivity (PSR sort gate): high polyreactivity

QVQLVESGGGLVQAGGSLRLSCAASGITFFRNARGWYRQAPGKEREFVATISRSSGSTYADSVKGRFTISRDNAKNTVYLQMNSLKPEDTAVYYCAAERTYSDSLSFDHWGQGTQVTVSS
polyreactivity (PSR sort gate): low polyreactivity

QVQLVESGGGLVQAGGSLRLSCAASGITFFTYAMGWYRQAPGKERELVAAISGSGGSTYYADSVKGRFTISRDNAKNTVYLQMNSLKPEDTAVYYCATDTGYPYSYDLYDSYYWGQGTQVTVSS
polyreactivity (PSR sort gate): low polyreactivity

QVQLVESGGGLVQAGGSLRLSCAASGITFGDNDMGWYRQAPGKDRELVASISSGGSTTYADSVKGRFTISRDNAKNTVYLQMNSLKPEDTADYYCNADYGSSVEYNYWGQGTQVTVSS
polyreactivity (PSR sort gate): low polyreactivity

QVQLVESGGGLVQAGGSLRLSCAASGITFGDYAMGWYRQAPGKERELVAAISYGGGSTYYADSVKGSFTISRDNAKNTVYLQMNSLKPEDTAVYYCAADGWRTYGYYEYDYWGQGTQVTVSS
polyreactivity (PSR sort gate): low polyreactivity

QVQLVESGGGLVQAGGSLRLSCAASGITFGDYDMGWYRPAPGKERELVAAITYDGGTTYYADSVKGRFTISRDNAKNTVYLQMHSLKPEDTAVYYCNADSYRGLYDYWGQGTQVTVSS
polyreactivity (PSR sort gate): low polyreactivity
